Laboratory results reported in article PMC4019693 (Nanomedicine : nanotechnology, biology, and medicine, 2013).
Values joined by “and” are separate entries in the source; they are usually repeats but may differ in a detail not shown here. Equal entries are not always repeated. “Also recorded” adds a separate entry of the source.

Experiments:
[1] = test system: Aβ40; assay: SMFS of Aβ40 interaction; type: binding; conditions: Aβ40 vs Aβ42, neutral pH; ref [10]
[2] = test system: Aβ40; conditions: cited from earlier work
[3] = SDS-page gel experiment, monomer state of Aβ42; type: physicochemical; conditions: diluted in different pH buffers from DMSO stock solution (Fig. S1)
[4] = molecular target: T1, Aβ42 (Homo sapiens, UniProt P05067); assay: Dynamic force spectroscopy; type: binding; conditions: for Lifetime of the dimer: calculated by k^−1off, SD from five independent experiments
[5] = molecular target: T1, Aβ42; assay: Contour length analysis of Aβ42 dimers; type: binding; conditions: for Prevailing region of interpeptide interaction: in words
[6] = molecular target: T1, Aβ42; assay: Single-molecule AFM force spectroscopy; type: binding; conditions: pH 7
[7] = pH 7, area under Gaussian curve
[8] = single representative curve (Fig. 2A), WLC fit, ALR ~4,000 pN/s

T1 sequence (P05067 672-713 limits assumed): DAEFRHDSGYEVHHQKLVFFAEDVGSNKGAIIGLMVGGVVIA

In the case of “Aβ40: Aβ protein containing 40 residues; Aβ42 differs by two extra C terminal residues (I41 and A42)”, the “Dimer lifetime relative to Aβ42” value [1] is given as “four times shorter”, the “Dimer lifetime relative to monomer dynamics” value ([2]; Aβ40 dimer lifetime vs monomer dynamics, ref [10]) is given as ~10^6 times and the “Conformer population, major interactions (L0 and L1)” value ([2]; pH 7, N-terminal segment interactions, ref [10]) is given as 74%. For the same substance, the “Lifetime of misfolded Aβ40 dimers” value ([2]; ref [10]) was 0.1 s and the “Rupture forces of dimers compared to Aβ42” value ([2]; result in words, reference not given, Aβ40 study is ref [10]) was “quite similar to those for Aβ42”.
For “Aβ42: Aβ42 terminated with cysteine at N-terminus (AnaSpec, Inc., Fremont, CA)”, the “Monomer state by SDS-page gel” value [3] was “The monomer state of Aβ42 diluted in different pH buffers from the stock solution was confirmed”, the “Lifetime of dimers (in words)” value ([4]; SMFS/DFS, pH not given) was “in the range of a second; also recorded: higher than that of Aβ40” and the “Lifetime of the dimer” value ([4]; pH 2.7) was 2.5±0.7 s and 2.5 s and 2.5 (±0.7) s. The “Increase of the dimer lifetime, pH 2.7 vs pH 7” value ([4]; pH 2.7 vs pH 7) was ~5 fold, the “Lifetime of the dimer” value ([4]; pH 7) was 0.46 (±0.25) s and the “ΔG, barrier height for dimer dissociation” value ([4]; pH 7, calculated from koff) was ~ 28.3 kBT. For the same substance, the “Prevailing region of interpeptide interaction” value ([5]; acidic pH (2.7)) was “interaction within the peptide center prevailed”, the “Conformer population, model L3 (C-termini), change vs pH 7” value ([5]; pH 2.7 vs pH 7, result in words) was “three-fold drop in the interaction between the C-termini (model L3)” and the “Conformer population, model L0 (interactions very close to N-termini)” value [5, 7] was 13%. For the same substance, the “Conformer population, model L1 (middle segments)” value [5, 7] was 29%, the “Prevailing region of interpeptide interaction” value ([5]; pH 7) was “Interaction via C-terminal segments prevailed” and the “Contour length, Gaussian center L0” value ([5]; pH 7 and 2.7, L0) was “around 35 nm”. The “Contour length, Gaussian center L1” value ([5]; pH 7 and 2.7, L1) was ~41 nm, the “Contour length, Gaussian center L2” value ([5]; pH 7 and 2.7, L2) was ~47 nm and the “Contour length, Gaussian center L3” value ([5]; pH 7 and 2.7, L3) was ~53 nm. For the same substance, the “Rupture force of representative curves with various contour lengths” value ([6]; four curves of Fig. 4A, similar ALR (~20,000 pN/s)) was 150±20 pN, the “Contour length, representative F-D curve” value [6, 8] was ~ 58 nm and the “Rupture force, representative F-D curve” value [6, 8] was ~ 83 pN.
